Like-named read-outs stand apart in the source and are kept apart here.
What was measured:
[1] = biological target: T1, human SEZ6 expressed on stably transfected CHO-K1 cells (human, UniProt Q53EL9 20-994); experiment: flow cytometry on CHO-K1 cells expressing human SEZ6
T1 construct: also called CHO-SEZ6; hSEZ6
T1 sequence: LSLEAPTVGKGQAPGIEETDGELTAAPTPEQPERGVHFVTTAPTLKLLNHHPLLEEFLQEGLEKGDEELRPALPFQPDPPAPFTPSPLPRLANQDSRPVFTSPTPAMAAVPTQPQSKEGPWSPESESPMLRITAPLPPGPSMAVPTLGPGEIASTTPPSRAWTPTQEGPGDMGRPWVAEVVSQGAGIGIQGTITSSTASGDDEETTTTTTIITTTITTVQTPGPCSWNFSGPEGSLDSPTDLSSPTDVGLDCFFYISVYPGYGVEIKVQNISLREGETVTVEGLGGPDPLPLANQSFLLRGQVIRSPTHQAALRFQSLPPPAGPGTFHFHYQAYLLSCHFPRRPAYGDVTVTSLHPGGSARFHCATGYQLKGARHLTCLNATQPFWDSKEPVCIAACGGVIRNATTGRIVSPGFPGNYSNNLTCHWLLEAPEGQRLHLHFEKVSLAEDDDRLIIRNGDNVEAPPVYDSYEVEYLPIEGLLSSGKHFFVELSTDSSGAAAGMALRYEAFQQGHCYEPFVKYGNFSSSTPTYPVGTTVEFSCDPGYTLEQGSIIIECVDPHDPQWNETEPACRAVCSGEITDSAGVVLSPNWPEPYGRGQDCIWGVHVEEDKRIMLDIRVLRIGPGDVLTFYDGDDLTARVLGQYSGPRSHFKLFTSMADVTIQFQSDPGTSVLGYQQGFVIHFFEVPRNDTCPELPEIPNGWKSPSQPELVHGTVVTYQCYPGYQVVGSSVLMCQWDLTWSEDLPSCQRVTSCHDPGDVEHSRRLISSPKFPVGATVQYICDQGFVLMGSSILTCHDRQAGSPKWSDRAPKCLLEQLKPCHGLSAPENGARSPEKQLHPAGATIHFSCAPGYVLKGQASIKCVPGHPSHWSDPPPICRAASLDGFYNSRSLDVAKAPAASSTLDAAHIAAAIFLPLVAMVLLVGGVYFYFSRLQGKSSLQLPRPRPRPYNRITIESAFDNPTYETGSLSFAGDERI

[2] = biological target: T1, human SEZ6 expressed on stably …; experiment: as above; remark: listed apart in the source
[3] = biological target: T1, human SEZ6 expressed on stably …; experiment: as above; remark: listed apart in the source
[4] = biological target: T2, cynomolgus monkey SEZ6 expressed on stably transfected CHO-K1 cells (cynomolgus monkey, UniProt Q53EL9 20-994 (human entry)); experiment: flow cytometry on CHO-K1 cells expressing cynomolgus monkey SEZ6
T2 construct: also called CHO-cynoSEZ6; monkey SEZ6 on the cell membrane
T2 chain: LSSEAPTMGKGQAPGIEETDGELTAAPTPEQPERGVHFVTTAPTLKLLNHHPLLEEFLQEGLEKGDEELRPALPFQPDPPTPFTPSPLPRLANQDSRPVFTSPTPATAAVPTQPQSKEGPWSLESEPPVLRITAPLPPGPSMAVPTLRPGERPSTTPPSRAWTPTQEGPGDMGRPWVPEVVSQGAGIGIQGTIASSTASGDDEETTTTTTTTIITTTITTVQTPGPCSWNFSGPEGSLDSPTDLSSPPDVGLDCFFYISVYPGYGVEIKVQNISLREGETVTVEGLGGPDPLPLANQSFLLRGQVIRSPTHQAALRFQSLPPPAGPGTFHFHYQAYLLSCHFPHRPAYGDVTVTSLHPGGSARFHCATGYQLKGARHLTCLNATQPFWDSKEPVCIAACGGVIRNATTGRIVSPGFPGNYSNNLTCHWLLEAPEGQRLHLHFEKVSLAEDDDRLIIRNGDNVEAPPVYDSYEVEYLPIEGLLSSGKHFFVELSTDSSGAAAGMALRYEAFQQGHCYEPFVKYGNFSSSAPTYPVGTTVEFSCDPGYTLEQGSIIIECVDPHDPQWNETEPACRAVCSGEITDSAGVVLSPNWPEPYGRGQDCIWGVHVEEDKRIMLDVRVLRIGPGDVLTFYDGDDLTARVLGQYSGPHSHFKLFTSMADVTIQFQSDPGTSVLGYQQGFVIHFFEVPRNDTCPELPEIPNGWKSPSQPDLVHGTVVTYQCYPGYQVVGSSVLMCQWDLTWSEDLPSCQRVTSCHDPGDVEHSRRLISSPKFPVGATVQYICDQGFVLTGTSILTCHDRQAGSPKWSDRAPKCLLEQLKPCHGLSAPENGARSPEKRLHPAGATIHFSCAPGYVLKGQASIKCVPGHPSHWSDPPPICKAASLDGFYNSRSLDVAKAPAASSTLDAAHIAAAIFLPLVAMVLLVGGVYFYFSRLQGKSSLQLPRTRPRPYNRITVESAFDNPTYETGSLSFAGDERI

EC50 [1]: 0.66 nM
MFImax [1]: 3300
EC50 [2]: 0.21 nM
MFImax [2]: 3940
EC50 [3]: 0.19 nM
EC50 [4]: 0.26 nM
B1: hSC200 (hSC17.200) (antibody, human IgG1, kappa, V domains shown)
VH: EVQLVQSGAEVKKPGESLKISCKGSGYSFTSSWINWVRQMPGKGLEWMGRIYPGEGDTNYNGNFEGQVTISADKSISTAYLQWSSLKASDTAMYYCTRGLVMDYWGQGTLVTVSS
VL: EIVLTQSPATLSLSPGERATLSCRASQSVDYNGISYMHWYQQKPGQAPRLLIYAASNVQSGIPARFSGSGSGTDFTLTISSLEPEDFAVYYCQQSIEDPPTFGGGTKVEIKR
notes: also called control molecule; control antibody

Source: patent publication EP4714971A1 (Shanghai Hansoh Biomedical Co., Ltd., dated 2024)
